Measurements taken from the DeepSol protein solubility set.

assay: soluble on expression in E. coli; label from the status in PepcDB or PDB records

Sequence | soluble on expression in E. coli
LPRELRPLMKKPLGILYRGKGRDTIEKFAGELSSPTKLISVGDVTTFHLLEAGIIPDICIVDDRTKRKPVSSDVSVRNRDKVYEEVSVDNPAGIITDELIRTLCEAFASEKLLRIFVRGEEDLATLPVILLAPPGSVVLYGQPDEGVVFVEVTEKKKEEIRALFEKLISK | not soluble
MGSDKIHHHHHHMRADLTPFLNDRLDWNLLRTYLVIMQERSVSRAAARLHVTQPAVSQALRRLEDTLERKLIERRGAHFAPTPAGEAVYRIASDIYGGVSRLETELDDSTADLTGSIRLLTVSRIESPVYDAFLADFHRAYPRIDLQIEVMRSSDILSSLLQKTATAGLGLCRTPHDKLEMRCFLRQRYAIYCGRHHRLFGQTQLRMEDLLAENFVSFTSDQIGDSLSPLTVFRDQKGFTGRIVASSPSLEEVRRLIFAGYGIGCLPEHIVRDDIAQQRLWRLPPDDGLVDVDVFLLWHRDRKMNAAEHAFLDAMERCMQQHSLAERLGM | not soluble
MGSDKIHHHHHHMTTTTKKTAERLIKKYPNRRLYDTETSTYITLTDVKQLVLDQEDFKVIDAKSNEDLTRAILLQIILEEESGGLPMFSSSMLSQIIRFYGHAMQGMMGTYLEKNIQAFIDIQAKLADQSKNLYEGKAMNPEVWSQFMNMQAPMMQGMMTSYIEQSKNMFVQMQEQMQNQAKSMFATFPFTPGGAVNVAGGGNAPASPQGNPQGNPEPEKK | not soluble
MEKIIVRGGKQLNGSVKMEGAKNAVLPVIAATLLASKGTSVLKNVPNLSDVFTINEVLKYLNADVSFVNDEVTVDATGEITSDAPFEYVRKMRASIVVMGPLLARTGSARVALPGGCAIGSRPVDLHLKGFEAMGAVVKIENGYIEATAEKLVGAKVYLDFPSVGATQNIMMAATLAEGTTVIENVAREPEIVDLANFLNQMGARVIGAGTEVIRIEGVKELTATEHSIIPDRIEAGTFMIAAAITGGNVLIEDAVPEHISSLIAKLEEMGVQIIEEENGIRVIGPDKLKAVDVKTMPHPGFPTDMQSQMMVIQMLSEGTSIMTETVFENRFMHVEEMRRMNADMKIEGHSVIISGPAKLQGAEVAATDLRAAAALILAGLVADGYTQVTELKYLDRGYNNFHGKLQALGADVERVDDSKVDVTNLASLF | not soluble
MGSDKIHHHHHHMKPGSHLFSPISFQESTPLYRQLYERVRRAISVGLLFPGDRLPSARMLAKELGVARGTIEQAYSLLIAEGYLQAHGQAGTRVNPDLPSASLPVAEAPVSPSAPDAEQQILWRPSQLLPFQMGVPAFDAFPRKLWARLGARYLRSMQLPDLDYPAPYGLPALRNAIASYLQVSRGIDCTANQVFITSGWRANLQLATLALLKSGQRVWVEDPGYPPTRQLLSQSGLCPIAVSVDREGINVERGIAQANDASMAVVTPAHQSPLSMSLSLPRRQALLQWATAQNAWIMEDDYDGEYRYISRPLPALASLDRHGRVLYAGTFSKVLFPGIRLAYLVVPQSQVAAFEHINRIFFASASPTMTQSIVASFITEGHFARHIQRTRRLYAERRTATITVLQGILGNRIRIDSQPGGMHLVLRLPDKFSDRQLADRLLAQGIAVQPLSRWAVSGSGDNALLVSFTNCTTVMESERLAALILAECEQHGNSLA | not soluble
MGSDKIHHHHHHMTIMDWNTIKGLVPVSGVQPDFVNCLDAFPVLKRAKETPQEPRYHGEGDVWTHTMMVIESLLQLPDYQTATREQQEILFFAALLHDVAKYRTTVIDPVTGQIGQPGHSRKGAIDARVLLWDADVPFAIREAICRLIAVHQVPFYCLEDERRRVSPIFTIRELSWQLSIPLLATLAEADIRGRICQDQTRVLDSIELFRELAREEGCYGQPRAFVDAHTRLSYFRGADVHPDYPLFQEPGSKVTVMCGLPASGKDTWVRTHRHDLPVVSFDDARTELGLKHGENEGKAVHWATDKARSLLRTHEPFVWNATHLSQQMRTRTLDLCYAYGAEVEIVYLERPRQELLRRNGKRDTTLSNKTLQGMLTKWELPSPTEAHVVRYES | not soluble
MYEAKDYKSDQYVRWCPGCGDHAVVVTLQKAMAEIGIPPHQTAVMSGIGCSSRLPYYMNTYGFHTIHGRGAAIATGVKTANPELSVWLASGDGDSLAIGGNHFIHAVRRNIDINAVLFNNRIYGLTKGQYSPTSARGFVSKSSPYGTVEDPFIPAELVLGARGNFFARAIDVDMKTLQECFVASARHRGFAVTEVLVNCVIFNDGTHKDRSHKDIRADRTITLRHGEKMIFGANRDKGIVLEGLKLRAVTIGEDGYTLDDVLVHDKYEQDVTLHHLLAMMGYTDDSMPIALGVIRDVEAPCYDRAVEAQIEEIQQKNPIRKLHDLLIQGDVWEIK | not soluble
MEKYEELFARIKEKAKLIDEKIFELIPEKDPRVLYEAARHYPLAGGKRVRPFVVLTSTEAVGGDPLRAIYPAVAIELIHNYSLVHDDIMDMDETRRGKPTVHRIWGVNMAILAGDLLFSKAFEAVARAEIPPEKKARVLEVIVKASNELCEGQARDLEFEKKSTVTIEEYMEMISGKTGALFEASAKVGGIIGTDNEEYIKALSSWGRNVGIAFQIWDDVLDLIADEKKLGKPVGSDIRKGKKTLIVAHFFENADEKDKQRFLKIFGKYAGDVKGRGIIEEDIKSDVMEAIDLLKKYGSIDYAAEIAKDMIKKANEALRILPKSKARMDLELLAKFIVEREY | soluble
MSKPSTPAPASADQNGDSATRQTAQTTETPASLLSAVGNGAPNMAGFTLNRDMVPFFPYQLQNPMLQPPQNSLENAIVHSLGTLAAQSSMFGQLCEKMLKAQEEARADQRSIREEHRAEREKADERSQQNMDKMMALVHSLVERVDRSHASSYDVVGQKNPSSSSLKPAKRVKSAVVRQSNLAKRTGAPVDAAKELKKIRDEENRNHGRSAERDNVFIGAVLVGKGSQYDKDLEKFKSFRCRTCNEVSQTKEQLVDHFSNNHAGELGARRSLRIKQTSC | not soluble
MELVHEIAIDPNFQIPDKPTNAIQRCVQESMHKAYYNQLRRDLAKDPPELEYCFSFLMEVKTMILDDILTAQHTRLKAEINSMLDETALRGKLDQGQLDIKKVMKYIVDLCSRLCSPARDVKVAELRTRTDVIDIFEGTMDLLELMKNDLTNYQISQNRAAIEEYSSKHEYDMFQKFLIENPNGCYFARQWLKAAYDELFEKKLDAEGEETSVKKERKNEDTDTVLIDTTSRGYTKLIQVNEYDGFPETLKIDKIKIELLAEKFLQIVMCASSVFVTCNVAGKQISESADFKKTLKDHLIVITNNTDEERIKSDLEKIGEQCVKEAVDTSKKLNIEWNTESSTSIRNQINALISSDNPIRKLVHTRVSTFVEEMLRSPTSVPHRLLPGLSVIQSELCAFTSKFLRLCVHNRKTFYAMYSNLIQEFQGHTPSTHAIYRADSPSSMPGPSTSA | not soluble
MLYIFTPTFNRGYRLSYLYDSLCNQTNKNFIWLIVDDGSEDSTKEIVSNYIKENKVSIVYLYKRNGGKHSAYNLAMRYMQPSDYHVCVDSDDWLLEDAVEIIFKDLESLTLSNRYVGLVYPRYSLNQGNNWLNPKILEVNIPDLKYKYHLKIETCIVINNAYLVDFEFPCFEGENFLSEEIMYIYLSKKGYFCPQNRKIYCFDYLEDGLTSNIFKLWRKNFKGTIFSLENSYMYVMSFPNIFDRWWSAIKIKMNIQALKMTTLGVIPTLKSEEAGWKILLGFSYLWKVARFKKSELEHHHHHH | soluble
MTLDDDDYIKQMELQRKAFESQFGSLESMGFEDKTKNIRTEVDTRDSSGDEIDNSDHGSDFKDGTIESSNSSDEDSGNETAEENNQDSKPKTQPKVIRFNGPSDVYVPPSKKTQKLLRSGKTLTQINKKLESTEAKEEKEDETLEAENLQNDLELQQFLRESHLLSAFNNGGSGSTNSGVSLTLQSMGGGNDDGIVYQDDQVIGKARSRTLEMRLNRLSRVNGHQDKINKLEKVPMHIRRGMIDKHVKRIKKYEQEAAEGGIVLSKVKKGQFRKIESTYKKDIERRIGGSIKARDKEKATKRERGLKISSVGRSTRNGLIVSKRDIARISGGERSGKFNGKKKSRR | not soluble
MGSDKIHHHHHHMEKEIKNIIEMRHIVKDFNGFKANNDINLTLRKGEILALLGENGAGKSTLMSILSGLLEPTSGEIYVRGEKVNISGPNVATSLGIGMVHQHFMLAQAFTVLENIILGHETTKGLALDFKTAREKILALSKQYGLAIDPDAKISDITVAQQQRVEILKVLYRGADILIFDEPTAVLTPQEITEFIKIMKNLAKEGKSIILITHKLKEIKESADRVTVIRAGKSIQTVSVADANDEQLAEMMVGHHVNFKLDKAPLNLGKNILEVKDLHVNEDRGTDAVKGLSFNIRGGEILGLAGIDGNGQDELVEAITGLRHVEGGQVVINGQDLTNKPVRQITEAGVGHIPADRQKYGLILQLPLSENIASQTYYKEPYSKHGIMNEQTIREHARELIKKFDVRTTSEQLPASDLSGGNQQKAIIARELDRDADLIIAFQPTRGLDVGAIEYIHSQLLKQRDAGKAVLLVSYELDEILQLSDRIVVLHDGAESGEVKPDQTSETELGLLMTGKNTKKEAAAND | not soluble
SQLADAEKINVPFPSSQTVVRLGQIGIDHHNQNYFPLMVGNYILGGGTLVSRLGTEVREKRGLTYGIDSQFVPMLGEGPFIISLSTKNSEARNALHITQDTLIKFIKNGPNQEELASAKQYLTGSFPLSLGSNTNIANLLLRMAFYHLPDNYLDTYVAKINAVTDAEIKQAFQQQVNPEKLLLVTVGQ | not soluble
GAGNYQLAVSTLAKVWKQLHIPDVYDVGAMYFIKTFLHFGVSLLSAGHAWTNPQSFLDNAPLRQTLGKMMPFDGIEPSIASGALQALALTASCYTTGMSVTFFQGEESLGEWTRYQRLGVRERIGLDHLMATAAIPLIFPSVRIGEKFYCDGAVRQLSPLSPALH | not soluble
MAHHHHHHMTRDDGTQVAQLLSEGKYNLPMFLRYLKASSMEGDQPDKSLLLGILLQSLARFQTSDFTACMCLVPSHVQDSPSVEKELNYIYGLENLLSCGLFARFWTQWSSVKEHLPESFHFEARVRTSILETICITMESIPTEKLATYLAVSPDQVQKVVHNAMKDSEDRDMKVMAYDSGSVVFHRNRFNYPQAGAAQDAIRFTDVSSVIHNDVPRRGAAVAADETRDVRARTWARMADE | soluble
MNQKDTRKETLEFNKLQKRLRRNVGNAITDYNMIEEGDVVMACISGGKDSFAMLDILLNLQKAAPIKFEVVAVNLDQKQPGFPEHILPEYFETLNIPYYIVDKDTYSVVKEKVPEGKTTCGLCSRLRRGTLYSFAEKIGATKLALGHHMDDIVETMFLNMFHGSRLKAMPPKLRSDDGRNVVIRPLTYCREKDLIKYAEHKDFPIIPCNLCGSQENLQRQAIKAMLIDWDKKTPGRVEAIFKSIQNVSPSQLADRELFDFVNLPLDRDGSREEYEFSEAVVSSTNIDESLFIDVTNI | soluble
MNTKLPLDLFNQAKRSASQDQPALFSWVTELDELVSPVKLFKKAGTAFKGERFFWQNPEMTLTMTGFGVTKQFLAEKKKDAFLGLQEKIEKRLRTSVTNATVDATGPVYFGGFAFDPERDTEKEWQSFKDGLFYLPLFMLTNKDGKSYLTVNLSIYSDDTESKLEAVFNQWQKIIHQEVNEAEMALLTDFKEIGKDHFLETASEIIDMINHSEDVKKVVLARRMGLRFQRQVDSAIILENMLATQENSYFFLIEKGTGVFFGATPERLLAVNGDEIHSSCVAGSTERGATEEADEALGNALLKDAKNLREHSYVVQMMEETLKPFTTGLSLSSQPVLLKNRDIQHLYMNITAKKKPDVSMLEMVKALHPTPALGGLPQKMGLAIIRMKEEMDRGFYGAPIGWVDLKGSGEFAVAIRSGLIVDSQGLIYAGCGIVGDSVPKEELQETAVKFQPMLRVLGGIKK | not soluble
MGHHHHHHSHMRPLTEEETRVMFEKIAKYIGENLQLLVDRPDGTYCFRLHNDRVYYVSEKIMKLAANISGDKLVSLGTCFGKFTKTHKFRLHVTALDYLAPYAKYKVWIKPGAEQSFLYGNHVLKSGLGRITENTSQYQGVVVYSMADIPLGFGVAAKSTQDCRKVDPMAIVVFHQADIGEYVRHEETLT | soluble
